Target: 大熊猫TSHβ亚基特异序列多肽片段TSHβ-2 (大熊猫 (giant panda))
Test: indirect ELISA, peptide TSHβ-2 coated at 2 μg/mL, HRP goat anti-mouse, OD450

Chain of 大熊猫TSHβ亚基特异序列多肽片段TSHβ-2 (大熊猫 (giant panda)) (peptide, as listed by the source): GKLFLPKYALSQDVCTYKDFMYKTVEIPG

B1: 大熊猫TSHβ单克隆抗体 (杂交瘤细胞株TSHB-B, CCTCC NO: C202283) (antibody, IgG1, V domains shown)
VH: EVKLVESGGGLVKPGGSLKLSCAASGFSFSRYAMSWVRHAPENRLEWVAAISRGGNLYYRDSVKGRFTISRDDARNILYLQMSSLRSEDTAMYYCTRDDYDEDWYFDVWGAGTTVTVSS
VL: DVLMTQTPLSLPVSLGEQASISCRSSQIIVHSNGNTYLEWYLQKPGQSPKLLIYKVSNRFSGVPDRFSGSGSGTDFTLKISRVEAEDLGVYYCFHGSHIPPTFGGGTKLEIK
A 效价 (ELISA titer) (fold dilution) greater than 1e+06 was found for B1 in this work.

From patent publication CN116819103A
